Reference: patent US20190367620A1 (Merck KGaA, published 2019)

T1: human FGFR1b-IIIb extracellular domain with a HIS tag (human)
T1 construct: also called huFGFR1b-IIIb; hFGFR1b-IIIb
T1 chain: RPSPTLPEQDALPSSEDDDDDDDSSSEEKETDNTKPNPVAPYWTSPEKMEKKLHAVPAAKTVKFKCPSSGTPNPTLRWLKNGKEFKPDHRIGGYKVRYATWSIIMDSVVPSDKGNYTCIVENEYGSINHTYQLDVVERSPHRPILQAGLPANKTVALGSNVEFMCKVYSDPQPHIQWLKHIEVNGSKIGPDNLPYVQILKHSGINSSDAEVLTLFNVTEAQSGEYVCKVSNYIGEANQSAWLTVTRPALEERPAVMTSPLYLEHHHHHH

T2: Human FGFR1 D2-His6 (human, UniProt P11362 22-254)
T2 construct: also called D2 domain; F3FR1c-D2
T2 sequence: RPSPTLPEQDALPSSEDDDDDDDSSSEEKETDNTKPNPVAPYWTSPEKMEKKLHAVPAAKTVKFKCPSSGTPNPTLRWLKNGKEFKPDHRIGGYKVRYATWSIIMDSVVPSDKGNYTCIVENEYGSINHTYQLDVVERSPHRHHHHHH

T3: human FGFR1b-IIIc extracellular domain with a HIS tag (human, UniProt P11362 22-376)
T3 construct: also called huFGFR1b-IIIc; hFGFR1b-IIIc
T3 sequence: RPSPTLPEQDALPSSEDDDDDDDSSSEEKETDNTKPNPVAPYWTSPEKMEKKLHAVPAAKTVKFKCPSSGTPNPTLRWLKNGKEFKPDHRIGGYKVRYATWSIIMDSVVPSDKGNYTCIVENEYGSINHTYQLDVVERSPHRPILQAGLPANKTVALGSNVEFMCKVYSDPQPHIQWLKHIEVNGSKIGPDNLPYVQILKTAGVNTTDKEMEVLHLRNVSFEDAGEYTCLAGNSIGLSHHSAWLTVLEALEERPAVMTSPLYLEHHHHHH

T4: ratFGFR1a-IIIc (rat, UniProt Q04589 22-376)
T4 construct: Bought, His6 tag; also called rat FGFR1a-IIIc His6-tagged
T4 sequence (looked up): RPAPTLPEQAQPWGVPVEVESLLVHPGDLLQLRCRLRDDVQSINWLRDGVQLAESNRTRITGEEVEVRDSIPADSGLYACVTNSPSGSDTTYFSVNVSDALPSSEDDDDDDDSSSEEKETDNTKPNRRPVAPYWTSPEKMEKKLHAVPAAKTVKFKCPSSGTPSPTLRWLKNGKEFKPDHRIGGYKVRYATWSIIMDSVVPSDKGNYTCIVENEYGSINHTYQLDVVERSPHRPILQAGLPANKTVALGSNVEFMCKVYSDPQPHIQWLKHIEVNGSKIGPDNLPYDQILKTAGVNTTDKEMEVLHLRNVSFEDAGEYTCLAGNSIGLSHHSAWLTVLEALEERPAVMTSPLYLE

T5: muFGFR1a-IIIc (mouse, UniProt P16092 22-376)
T5 construct: Bought, His6 tag; also called mouse FGFR1a-IIIc His6-tagged; murine FGFR1a-IIIc
T5 sequence (looked up): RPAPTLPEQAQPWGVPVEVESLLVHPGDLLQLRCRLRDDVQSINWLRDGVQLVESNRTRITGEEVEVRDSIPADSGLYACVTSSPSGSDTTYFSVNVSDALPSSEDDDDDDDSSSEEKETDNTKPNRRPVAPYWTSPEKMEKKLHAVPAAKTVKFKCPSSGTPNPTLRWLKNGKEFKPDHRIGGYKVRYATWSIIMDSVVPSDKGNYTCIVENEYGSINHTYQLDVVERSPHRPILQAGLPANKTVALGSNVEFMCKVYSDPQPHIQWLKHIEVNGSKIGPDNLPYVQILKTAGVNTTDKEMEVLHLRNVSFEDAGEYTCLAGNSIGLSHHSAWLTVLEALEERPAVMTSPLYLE


What was measured:
FGFR1 on NCI-H520 cells [1] = molecular target: T6, FGFR1 on NCI-H520 cells (human, UniProt P11362 22-822); experiment: cell-based or functional assay
[2] = molecular target: T1, human FGFR1b-IIIb extracellular domain …; experiment: SPR (BIAcore), IgG1 format; target IIIb by paragraph 74 and paragraph 125, the table's title says IIIc; IgG1 (bivalent), not SEEDbody
Experimental: (§1) Binding affinities of anti-FGFR1 antibodies to FGFR1 were measured by Surface Plasmon Resonance (SPR) using a GE Healthcare BIAcore 4000 instrument as follows. Goat anti-human Fc antibody (Jackson ImmunoResearch Laboratories #109-005-098) was first immobilized on BIAcore carboxymethylated dextran CM5 chip using direct coupling to free amino groups following the procedure described by the manufacturer. Antibodies were then captured on the CM5 biosensor chip to achieve approximately 200 response units (RU). Binding measurements were performed using the running HBS-EP+ buffer. A 2-fold dilution series of His-tagged FGFR1 proteins were injected at a flow rate of 30 μl/min at 25° C. Association rates (kₒₙ, per mol/s) and dissociation rates (koff, per s) were calculated using a simple 1:1 Langmuir binding model (Biacore 4000 Evaluation Software). The equilibrium dissociation constant (KD, mol) was calculated as the ratio of koff/kₒₙ.
The affinities to human FGFR1b-IIIb for the affinity matured clones reformatted as IgG and monovalent SEEDbodies were measured by BIAcore (using a protocol similar to the one described in Example 1.8) and compared to those of mAb #08 (Table 5).

Human FGFR1 D2-His6 = molecular target: T2, Human FGFR1 D2-His6; experiment: ELISA, antibody titrated on FGFR1 Ig-D2, O.D. 450 nm [panel FGFR1 Ig-D2]
[3] = molecular target: T3, human FGFR1b-IIIc extracellular domain …; experiment: SPR (Biacore 4000), antibody captured, His-tagged FGFR1 injected; differs from the cell of Table 1
Experimental: as §1

ratFGFR1a-IIIc = molecular target: T4, ratFGFR1a-IIIc; experiment: SPR (Biacore 4000), antibody captured, His-tagged FGFR1 injected
Experimental: as §1

FGFR1 on NCI-H520 cells [4] = molecular target: T6, FGFR1 on NCI-H520 cells; experiment: cell-based or functional assay; remark: listed apart in the source
muFGFR1a-IIIc = molecular target: T5, muFGFR1a-IIIc; experiment: SPR (Biacore 4000), antibody captured, His-tagged FGFR1 injected; no unit in the table, nM inferred from paragraph 90
Experimental: as §1

rheFGFR1a-IIIc = molecular target: T7, rheFGFR1a-IIIc (rhesus monkey); experiment: as above
T7 construct: Bought, His6 tag; also called rhesus monkey FGFR1a-IIIc His6-tagged
Experimental: as §1

T6 sequence (P11362 22-822): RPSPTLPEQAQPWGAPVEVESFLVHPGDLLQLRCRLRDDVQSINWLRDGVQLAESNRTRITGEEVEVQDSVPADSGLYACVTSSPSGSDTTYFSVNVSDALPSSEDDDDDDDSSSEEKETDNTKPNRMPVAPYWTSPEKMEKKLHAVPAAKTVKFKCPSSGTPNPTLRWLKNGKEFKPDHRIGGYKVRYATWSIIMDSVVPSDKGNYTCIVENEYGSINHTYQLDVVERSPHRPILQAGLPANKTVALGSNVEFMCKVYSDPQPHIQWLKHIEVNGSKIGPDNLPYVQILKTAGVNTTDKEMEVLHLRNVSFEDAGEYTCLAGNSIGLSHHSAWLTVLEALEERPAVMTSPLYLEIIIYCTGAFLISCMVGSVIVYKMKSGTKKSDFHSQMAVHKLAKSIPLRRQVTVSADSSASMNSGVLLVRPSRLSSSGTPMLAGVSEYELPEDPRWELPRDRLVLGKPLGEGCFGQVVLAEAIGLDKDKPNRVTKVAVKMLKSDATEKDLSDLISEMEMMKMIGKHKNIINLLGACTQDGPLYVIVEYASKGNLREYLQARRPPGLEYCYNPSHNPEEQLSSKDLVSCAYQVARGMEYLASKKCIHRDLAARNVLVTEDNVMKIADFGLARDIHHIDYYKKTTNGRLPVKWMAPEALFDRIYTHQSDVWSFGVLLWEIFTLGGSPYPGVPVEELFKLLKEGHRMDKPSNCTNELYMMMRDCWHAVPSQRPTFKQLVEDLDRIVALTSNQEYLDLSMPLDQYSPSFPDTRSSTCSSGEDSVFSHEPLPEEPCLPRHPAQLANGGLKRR

| IC50, pFGFR1 inhibition in NCI-H520 cells, FGF1, IgG1 (FGFR1 on NCI-H520 cells [1]) | IC50, pFGFR1 inhibition in NCI-H520 cells, FGF2, IgG1 (FGFR1 on NCI-H520 cells [1]) | IC50, pFGFR1 inhibition in NCI-H520 cells, non-stimulated, IgG1 (asterisk: partial response) (FGFR1 on NCI-H520 cells [1]) | Kd [2] | IC50, pFGFR1 inhibition in NCI-H520 cells, FGF1, IgG1 (asterisk: partial response) (FGFR1 on NCI-H520 cells [1]) | IC50, pFGFR1 inhibition in NCI-H520 cells, non-stimulated, IgG1 (FGFR1 on NCI-H520 cells [1]) | Kd [3] | binding result (ratFGFR1a-IIIc) | IC50, inhibition of P-FGFR1 in NCI-H520 cells, FGF1 stimulated (asterisk: partial response) (FGFR1 on NCI-H520 cells [4]) | IC50, inhibition of P-FGFR1 in NCI-H520 cells, FGF2 stimulated (FGFR1 on NCI-H520 cells [4]) | Kd (muFGFR1a-IIIc) | Kd (rheFGFR1a-IIIc) | Binder | binding result (Human FGFR1 D2-His6) |
| --- | --- | --- | --- | --- | --- | --- | --- | --- | --- | --- | --- | --- | --- |
| 1e-09 M | 2e-10 M | 5e-08 M | 0.06 nM | – | – | – | – | – | – | – | – | #A08 IgG1 (standard IgG1 built from the #A08 lead heavy and light chains) (antibody, V domains shown, also called #A08 lead IgG1; mAb #A08 in the IgG1 format) VH: EVQLQESGPGLVKPSGTLSLTCAVSGGSISSNNWWSWVRQPPGKGLEWIGEIYHSGSTSYNPSLKSRVTISVDKSKNQFSLKLSSVTAADTAVYYCARGTDWFDPWGQGTLVTVSS VL: SYVLTQPPSVSVAPGQTARITCGGNNIGSESVHWYQQKPGQAPVLVVYDDSDRPSGIPERFSGSNSGNTATLTISRVEAGDEADYYCQVWDSTSDHRVFGGGTKLTVLG | – |
| – | 3e-09 M | – | – | 8e-09 M | > 1e-06 M | 0.01 nM | no binding | 1 nM | 1 nM | 1.6 nM | 0.51 nM | mAb #A05 (antibody, V domains shown, also called #A05 hit; A05 (IgG1)) VH: not shown VL: QSALTQPASVSGSPGQSITISCTGTSSDVGSYNLVSWYQQHPGKAPKLMIYGGSKRPSGVPDRFSGSKSDTSASLTISGLQAEDEADYYCCSYTYNGDVFGTGTKVTVL | no binding (tested: about 0.7 nM (Log(nM) about -0.15)) |
